This is an account of results in PMC12040988, “GET3B is involved in chloroplast biogenesis and interacts with the thylakoidal ALB3 and ALB4 insertases” (Plant Cell Reports, 2025).

This experiment deals with T1, GST-tagged mature full-length GET3b (GST-Get3b) (Arabidopsis thaliana, UniProt A1L4Y1 68-411).
T1 construct: The results say 'GET3B C-terminally fused to GST'; The name GST-Get3b and the vector pGex-4T-3 fit GST at the N-terminus; also called AtGET3B; source: E. coli Rosetta2(DE3), purified (glutathione-sepharose); not shown: GST, N-terminal, kept
T1 sequence (looked up): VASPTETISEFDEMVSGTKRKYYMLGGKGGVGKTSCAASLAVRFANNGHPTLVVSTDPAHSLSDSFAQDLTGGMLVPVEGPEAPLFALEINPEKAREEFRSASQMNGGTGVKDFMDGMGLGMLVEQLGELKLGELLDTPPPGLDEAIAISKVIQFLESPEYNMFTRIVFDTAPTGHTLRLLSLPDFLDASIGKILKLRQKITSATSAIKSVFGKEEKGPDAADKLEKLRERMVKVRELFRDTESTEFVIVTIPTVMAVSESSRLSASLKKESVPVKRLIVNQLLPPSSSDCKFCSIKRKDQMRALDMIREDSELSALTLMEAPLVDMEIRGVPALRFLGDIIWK
The experiment is described as follows: pull-down; 50 μg GST-Get3b (or GST) with 20 μg Alb3C-His or Alb4C-His in 120 μl 1x PBS, 10 min at room temperature; held on glutathione resin 30 min, washed with 5 ml PBS, eluted with 10 mM reduced glutathione; immunoblot with antibodies against Alb3, Alb4 or GST. To be noted: both partners purified. In general terms: Immunoblotting shows a protein as a band on a membrane.

B1: His-tagged C-terminal region of ALB4 (Alb4C-His) (domain or fragment, Arabidopsis thaliana, UniProt Q9FYL3 334-499, looked up)
chain: VWLQKYGGAKNPVEKFTNLVTKEDKTQQIEKSFSEPLVQKSVSELKIPREKGGEKVTPECPKPGERFRLLKEQEAKRRREKEERQKAEAALSNQNTDKAHEQDEKSDTAIVAEDDKKTELSAVDETSDGTVAVNGKPSIQKDETTNGTFGIGHDTEQQHSHETEKR
notes: ALB4 (STIC1) of Arabidopsis thaliana, stromal C-terminal region, aa 334-499; source: E. coli Rosetta2(DE3), purified (nickel-nitrilotriacetic acid); not shown: His tag, C-terminal, kept
Regarding B1, the binding result is reported as “binds”.

B2: His-tagged C-terminal region of ALB3 (Alb3C-His) (domain or fragment, Arabidopsis thaliana, UniProt Q8LBP4 350-462, looked up)
chain: VYLRKLGGAKPNMDENASKIISAGRAKRSIAQPDDAGERFRQLKEQEKRSKKNKAVAKDTVELVEESQSESEEGSDDEEEEAREGALASSTTSKPLPEVGQRRSKRSKRKRTV
notes: ALB3 of Arabidopsis thaliana, stromal C-terminal region, aa 350-462; also called Alb3-His; source: E. coli Rosetta2(DE3), purified (nickel-nitrilotriacetic acid); not shown: His tag, C-terminal, kept
As to B2, the binding result is given as “binds”.
